Assay results from PMC1807977 (Nucleic Acids Research, 2007).

T1: CBP-tagged Tfb2 (purified yeast Tfb2 protein) (S. cerevisiae, UniProt Q02939 1-513)
T1 sequence (looked up): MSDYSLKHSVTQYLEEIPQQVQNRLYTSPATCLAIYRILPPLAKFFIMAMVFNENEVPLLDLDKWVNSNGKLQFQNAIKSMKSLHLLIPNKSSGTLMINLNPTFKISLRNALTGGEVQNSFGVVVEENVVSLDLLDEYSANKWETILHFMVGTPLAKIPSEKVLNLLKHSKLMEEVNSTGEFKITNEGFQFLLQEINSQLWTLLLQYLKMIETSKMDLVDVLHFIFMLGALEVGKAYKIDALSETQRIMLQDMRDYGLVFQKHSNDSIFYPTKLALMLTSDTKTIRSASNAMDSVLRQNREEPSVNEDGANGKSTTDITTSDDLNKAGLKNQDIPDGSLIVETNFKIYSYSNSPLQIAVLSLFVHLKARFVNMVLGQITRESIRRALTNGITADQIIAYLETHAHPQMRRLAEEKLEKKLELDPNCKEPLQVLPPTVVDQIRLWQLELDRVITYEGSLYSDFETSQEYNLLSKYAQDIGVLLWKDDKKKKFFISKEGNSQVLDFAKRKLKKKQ

T2: Tfb5 (Saccharomyces cerevisiae, UniProt Q3E7C1 1-72)
T2 sequence: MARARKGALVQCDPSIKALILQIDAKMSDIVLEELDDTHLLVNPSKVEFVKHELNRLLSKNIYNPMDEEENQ

B1: His6-Tfb5ΔN7 (domain or fragment, S. cerevisiae, UniProt Q3E7C1 8-72, looked up)
chain: ALVQCDPSIKALILQIDAKMSDIVLEELDDTHLLVNPSKVEFVKHELNRLLSKNIYNPMDEEENQ
B2: His6-Tfb5 (purified yeast Tfb5 protein) (natural protein, S. cerevisiae, UniProt Q3E7C1 1-72, looked up)
chain: T2 sequence
B3: 79mer ss (ssDNA)
DNA: GGAATTCCGGAATTACAGGCTCTAACACCGAATTACAGGCTCTAACACCGTCTCATCTTCGCTCGTCCACTTTTTTTCG
B4: His6-Tfb5ΔC14 (domain or fragment, S. cerevisiae, UniProt Q3E7C1 1-58, looked up)
chain: MARARKGALVQCDPSIKALILQIDAKMSDIVLEELDDTHLLVNPSKVEFVKHELNRLL

How the values were obtained:
[1] = biological target: T1, CBP-tagged Tfb2 (purified yeast Tfb2 …); experiment: pull-down
[2] = biological target: T1, CBP-tagged Tfb2 (purified yeast Tfb2 …); experiment: co-IP
[3] = biological target: T2, Tfb5; experiment: EMSA

Row | Binder | binding result [1] | other results
1 | B1 | binds | 
2 | B2 |  | binding result [2]: binds
3 | B3 |  | binding result [3]: no binding
4 | B4 | binds | 
